{"source": "paper PMC4273445", "about": "(eLife, 2014)", "experiment_in_all_cases": "SPR", "key": {"[1]": {"molecular_target": "fHbp V3.28 Lys (at V1 Lys306) to Ala (N. meningitidis)"}, "[2]": {"molecular_target": "fHbp V3.28 Glu (at V1 Asp262) to Ala (N. meningitidis)"}, "[3]": {"molecular_target": "fHbp V2.21 Ile (at V1 Ile147) to Ala (N. meningitidis)"}, "[4]": {"molecular_target": "fHbp V3.28 Asp (at V1 Asp150) to Ala (N. meningitidis)"}, "[5]": {"molecular_target": "fHbp V2.21 Val (at V1 Val149) to Ala (N. meningitidis)"}, "[6]": {"molecular_target": "fHbp V2.21 Leu (at V1 Ser274) to Ala (N. meningitidis)"}, "[7]": {"molecular_target": "fHbp V3.28 Asn (at V1 Gln180) to Ala (N. meningitidis)"}, "[8]": {"molecular_target": "fHbp V2.21 Ile (at V1 Ser185) to Ala (N. meningitidis)"}, "[9]": {"molecular_target": "fHbp V1.1 Leu289 to Ala (N. meningitidis)"}, "[10]": {"molecular_target": "fHbp V2.21 His (at V1 Ser288) to Ala (N. meningitidis)"}, "[11]": {"molecular_target": "fHbp V1.1 Leu171 to Ala (N. meningitidis)"}, "[12]": {"molecular_target": "fHbp 3.P45 (N. meningitidis) (UniProt E6MV22)"}, "[13]": {"molecular_target": "fHbp V2.21 Ser (at V1 Ser302) to Ala (N. meningitidis)"}, "[14]": {"molecular_target": "fHbp V1.1 Ser274 to Ala (N. meningitidis)"}, "[15]": {"molecular_target": "fHbp 1.P292 (N. meningitidis) (UniProt E6MV22)"}, "[16]": {"molecular_target": "fHbp V2.21 Glu (at V1 Gly267) to Ala (N. meningitidis)"}, "[17]": {"molecular_target": "fHbp V2.21 His (at V1 His248) to Ala (N. meningitidis)"}, "[18]": {"molecular_target": "fHbp V3.28 Asp (at V1 Glu183) to Ala (N. meningitidis)"}, "[19]": {"molecular_target": "fHbp V3.28 Lys (at V1 His184) to Ala (N. meningitidis)"}, "[20]": {"molecular_target": "fHbp V2.21 Lys (at V1 Lys92) to Ala (N. meningitidis)"}, "[21]": {"molecular_target": "fHbp V1.1 Glu183 to Ala (N. meningitidis)"}, "[22]": {"molecular_target": "fHbp V1.1 Phe174 to Ala (N. meningitidis)"}, "[23]": {"molecular_target": "fHbp 2.P23 (N. meningitidis) (UniProt E6MV22)"}, "[24]": {"molecular_target": "fHbp V2.21 Glu (at V1 Glu283) to Ala (N. meningitidis)"}, "[25]": {"molecular_target": "factor H binding protein (fHbp) V2.21 (N. meningitidis) (UniProt E6MV22)"}, "[26]": {"molecular_target": "fHbp V2.21 Arg (at V1 Arg106) to Ala (N. meningitidis)"}, "[27]": {"molecular_target": "fHbp V2.21 Val (at V1 Ile311) to Ala (N. meningitidis)"}, "[28]": {"molecular_target": "fHbp V1.1 Asn108 to Ala (N. meningitidis)"}, "[29]": {"molecular_target": "fHbp V1.1 Gln193 to Ala (N. meningitidis)"}, "[30]": {"molecular_target": "fHbp V1.1 Pro265 to Ala (N. meningitidis)"}, "[31]": {"molecular_target": "fHbp V2.21 Asp (at V1 Glu183) to Ala (N. meningitidis)"}, "[32]": {"molecular_target": "fHbp 1.P4 (N. meningitidis) (UniProt E6MV22)"}, "[33]": {"molecular_target": "fHbp V1.1 Lys191 to Ala (N. meningitidis)"}, "[34]": {"molecular_target": "fHbp V3.28 Ile (at V1 Ile179) to Ala (N. meningitidis)"}, "[35]": {"molecular_target": "fHbp V3.28 Ile (at V1 Ile273) to Ala (N. meningitidis)"}, "[36]": {"molecular_target": "fHbp V3.28 Lys (at V1 Lys264) to Ala (N. meningitidis)"}, "[37]": {"molecular_target": "fHbp V1.1 Ser185 to Ala (N. meningitidis)"}, "[38]": {"molecular_target": "fHbp 2.P16 (N. meningitidis) (UniProt E6MV22)"}, "[39]": {"molecular_target": "fHbp V1.1 Ser302 to Ala (N. meningitidis)"}, "[40]": {"molecular_target": "fHbp V3.28 Ala (at V1 Glu157) to Glu (N. meningitidis)"}, "[41]": {"molecular_target": "fHbp V2.21 Ile (at V1 Ile154) to Ala (N. meningitidis)"}, "[42]": {"molecular_target": "fHbp V3.28 Ser (at V1 Ser302) to Ala (N. meningitidis)"}, "[43]": {"molecular_target": "fHbp V3.28 Ala (at V1 Pro265) to Pro (N. meningitidis)"}, "[44]": {"molecular_target": "fHbp 1.P249 (N. meningitidis) (UniProt E6MV22)"}, "[45]": {"molecular_target": "fHbp V2.21 Lys (at V1 His184) to Ala (N. meningitidis)"}, "[46]": {"molecular_target": "fHbp V3.28 Val (at V1 Ile196) to Ala (N. meningitidis)"}, "[47]": {"molecular_target": "fHbp V3.28 His (at V1 Ser288) to Ala (N. meningitidis)"}}, "note": "pKd: −log10 of the molar value."}
{"substance": "CFH67, CCP domains 6 and 7 of complement factor H (from UniProt P08603 321-443) (domain or fragment)", "values": [{"measurement": "pKd", "setting": "[1]", "value": 7.97}, {"measurement": "pKd", "setting": "[2]", "value": 8.19}, {"measurement": "pKd", "setting": "[3]", "value": 8.45}, {"measurement": "pKd", "setting": "[4]", "value": 8.36}, {"measurement": "pKd", "setting": "[5]", "value": 8.16}, {"measurement": "pKd", "setting": "[6]", "value": 7.62}, {"measurement": "pKd", "setting": "[7]", "value": 8.07}, {"measurement": "pKd", "setting": "[8]", "value": 7.88}, {"measurement": "pKd", "setting": "[9]", "value": 8.84}, {"measurement": "pKd", "setting": "[10]", "value": 8.17}, {"measurement": "pKd", "setting": "[11]", "value": 8.13}, {"measurement": "pKd", "setting": "[12]", "value": 9.64}, {"measurement": "pKd", "setting": "[13]", "value": 8.08}, {"measurement": "pKd", "setting": "[14]", "value": 7.95}, {"measurement": "pKd", "setting": "[15]", "value": 8.11}, {"measurement": "pKd", "setting": "[16]", "value": 8.79}, {"measurement": "pKd", "setting": "[17]", "value": 8.72}, {"measurement": "pKd", "setting": "[18]", "value": 8.22}, {"measurement": "pKd", "setting": "[19]", "value": 8.56}, {"measurement": "pKd", "setting": "[20]", "value": 8.56}, {"measurement": "pKd", "setting": "[21]", "value": 8.15}, {"measurement": "pKd", "setting": "[22]", "value": 8.49}, {"measurement": "pKd", "setting": "[23]", "value": 8.70}, {"measurement": "pKd", "setting": "[24]", "value": 6.71}, {"measurement": "pKd", "setting": "[25]", "value": 8.73}, {"measurement": "pKd", "setting": "[26]", "value": 8.22}, {"measurement": "pKd", "setting": "[27]", "value": 8.22}, {"measurement": "pKd", "setting": "[28]", "value": 8.43}, {"measurement": "pKd", "setting": "[29]", "value": 8.18}, {"measurement": "pKd", "setting": "[30]", "value": 8.44}, {"measurement": "pKd", "setting": "[31]", "value": 8.37}, {"measurement": "pKd", "setting": "[32]", "value": 8.40}, {"measurement": "pKd", "setting": "[33]", "value": 8.19}, {"measurement": "pKd", "setting": "[34]", "value": 8.00}, {"measurement": "pKd", "setting": "[35]", "value": 9.70}, {"measurement": "pKd", "setting": "[36]", "value": 7.68}, {"measurement": "pKd", "setting": "[37]", "value": 8.51}, {"measurement": "pKd", "setting": "[38]", "value": 8.46}, {"measurement": "pKd", "setting": "[39]", "value": 9.23}, {"measurement": "pKd", "setting": "[40]", "value": 7.43}, {"measurement": "pKd", "setting": "[41]", "value": 7.59}, {"measurement": "pKd", "setting": "[42]", "value": 8.21}, {"measurement": "pKd", "setting": "[43]", "value": 8.42}, {"measurement": "pKd", "setting": "[44]", "value": 8.27}, {"measurement": "pKd", "setting": "[45]", "value": 8.50}, {"measurement": "pKd", "setting": "[46]", "value": 7.94}, {"measurement": "pKd", "setting": "[47]", "value": 8.12}]}
{"substance": "CFHR3_(12), the first two (N-terminal) CCP domains of complement factor H-related 3 (from UniProt Q02985 19-330) (domain or fragment)", "values": [{"measurement": "pKd", "setting": "[1]", "value": 8.03}, {"measurement": "pKd", "setting": "[2]", "value": 8.16}, {"measurement": "pKd", "setting": "[3]", "value": 8.09}, {"measurement": "pKd", "setting": "[4]", "value": 8.42}, {"measurement": "pKd", "setting": "[5]", "value": 8.24}, {"measurement": "pKd", "setting": "[6]", "value": 7.75}, {"measurement": "pKd", "setting": "[7]", "value": 8.10}, {"measurement": "pKd", "setting": "[8]", "value": 8.19}, {"measurement": "pKd", "setting": "[9]", "value": 7.74}, {"measurement": "pKd", "setting": "[10]", "value": 8.12}, {"measurement": "pKd", "setting": "[11]", "value": 6.14}, {"measurement": "pKd", "setting": "[12]", "value": 9.11}, {"measurement": "pKd", "setting": "[13]", "value": 8.20}, {"measurement": "pKd", "setting": "[14]", "value": 7.36}, {"measurement": "pKd", "setting": "[15]", "value": 7.50}, {"measurement": "pKd", "setting": "[16]", "value": 8.67}, {"measurement": "pKd", "setting": "[17]", "value": 8.45}, {"measurement": "pKd", "setting": "[18]", "value": 8.31}, {"measurement": "pKd", "setting": "[19]", "value": 8.52}, {"measurement": "pKd", "setting": "[20]", "value": 8.51}, {"measurement": "pKd", "setting": "[21]", "value": 7.09}, {"measurement": "pKd", "setting": "[22]", "value": 6.47}, {"measurement": "pKd", "setting": "[23]", "value": 8.77}, {"measurement": "pKd", "setting": "[24]", "value": 7.65}, {"measurement": "pKd", "setting": "[25]", "value": 8.43}, {"measurement": "pKd", "setting": "[26]", "value": 8.28}, {"measurement": "pKd", "setting": "[27]", "value": 8.01}, {"measurement": "pKd", "setting": "[28]", "value": 7.04}, {"measurement": "pKd", "setting": "[29]", "value": 6.80}, {"measurement": "pKd", "setting": "[30]", "value": 6.89}, {"measurement": "pKd", "setting": "[31]", "value": 8.35}, {"measurement": "pKd", "setting": "[32]", "value": 7.12}, {"measurement": "pKd", "setting": "[33]", "value": 7.04}, {"measurement": "pKd", "setting": "[34]", "value": 8.16}, {"measurement": "pKd", "setting": "[35]", "value": 9.53}, {"measurement": "pKd", "setting": "[36]", "value": 7.53}, {"measurement": "pKd", "setting": "[37]", "value": 7.11}, {"measurement": "pKd", "setting": "[38]", "value": 8.43}, {"measurement": "pKd", "setting": "[39]", "value": 7.76}, {"measurement": "pKd", "setting": "[40]", "value": 8.36}, {"measurement": "pKd", "setting": "[41]", "value": 7.83}, {"measurement": "pKd", "setting": "[42]", "value": 8.12}, {"measurement": "pKd", "setting": "[43]", "value": 8.32}, {"measurement": "pKd", "setting": "[44]", "value": 7.49}, {"measurement": "pKd", "setting": "[45]", "value": 8.50}, {"measurement": "pKd", "setting": "[46]", "value": 7.83}, {"measurement": "pKd", "setting": "[47]", "value": 8.02}]}
